Laboratory results published in patent US8993253.

Target: T1, Chromogenic polypeptide Val-Arg-[pABA]-Gly
T1 chain: VRXG

B1: papain (protein)
chain: IPEYVDWRQKGAVTPVKNQGSCGSCWAFSAVVTIEGIIKIRTGNLNEYSEQELLDCDRRSYGCNGGYPWSALQLVAQYGIHYRNTYPYEGVQRYCRSREKGPYAAKTDGVRQVQPYNEGALLYSIANQPVSVVLEAAGKDFQLYRGGIFVGPCGNKVDHAVAAVGYGPNYILIKNSWGTGWGENGYIRIKRGTGNSYGVCGLYTSSFYPVKN
colour change with DMAC after proteolysis (booklet assay): after ten minutes DMAC changed from yellow to red
